Among the data in CN116693678A are OD值 (450nm, 参考630nm) values, retold here.

Sequences and labels used below:
B1: Anti-MP-11F5mut1 (antibody, mouse IgG1, kappa, V domains shown)
VH: QVQLQQSGPELVKPGALVKISCKASGYTFTSFDINWVKQRPGQGLEWIGYIYPGDGSTKYNEKFKGKATLTADKSSSTAYMQFSSLTSENSAVYFCTRKGGWGAGHSAMDYWGQGTSVTVSS
VL: DIQMTQTTSSLSASLGDRVTISCRASQAIGNYLNWYQQRPDGTVKLLIYYTSRKNSGAPSRFSGSGSGTDYSITISNLDQEDIATYFCQQGYTTPYTFGGGTKLEIKR
B2: Anti-MP-11F5mut8 (antibody, mouse IgG1, kappa, V domains shown)
VH: B1 VH with N90D
VL: B1 VL with G30S, L33I, I73L, L78I
B3: Anti-MP-11F5mut6 (antibody, mouse IgG1, kappa, V domains shown)
VH: B1 VH with N90D
VL: B1 VL with G30S, L33I, I73L
B4: Anti-MP-11F5mut4 (antibody, mouse IgG1, kappa, V domains shown)
VH: B1 VH
VL: B1 VL with G30S, L33I, I73L
B5: Anti-MP-11F5mut7 (antibody, mouse IgG1, kappa, V domains shown)
VH: B1 VH
VL: B1 VL with G30S, L33I, I73L, L78I
B6: Anti-MP-11F5mut5 (antibody, mouse IgG1, kappa, V domains shown)
VH: B1 VH
VL: B1 VL with G30S, I73L, L78I

Residue numbers refer to the chain shown, from its start.

One assay concerns the target 肺炎支原体天然抗原(购自Microbix) (Mycoplasma pneumoniae). Nature of the assay: indirect ELISA on coated antigen (2 ug/ml), antibody 0.15 ng/ml. Background: An ELISA detects its analyte on a solid surface through an enzyme-linked reagent.
With 对照 (antibody), the OD值 (450nm, 参考630nm) is 0.068 OD.
The same measure, in the same setting: as for B1, the figure is 0.156 OD; as for B2, 0.489 OD; as for B3, 0.174 OD.
In the case of B4, the OD值 (450nm, 参考630nm) amounted to 0.374 OD.
Take B5: the OD值 (450nm, 参考630nm) was 0.365 OD.
The same measure, in the same setting: with B6 the figure was 0.163 OD.

The next assay has the same target. The experiment in a line: indirect ELISA on coated antigen (2 ug/ml), antibody 0.46 ng/ml.
Regarding 对照 (antibody), the OD值 (450nm, 参考630nm) turned out to be 0.111 OD.
In turn, B1 returned an OD值 (450nm, 参考630nm) of 0.201 OD.
The same measure, in the same setting: as for B2, the figure is 0.56 OD; as for B3, 0.276 OD.
With B4, the OD值 (450nm, 参考630nm) came to 0.49 OD.
On the same count and under the same terms, with B5 the figure was 0.4 OD; with B6, 0.241 OD.

The target is the same in the next assay. The experiment in a line: indirect ELISA on coated antigen (2 ug/ml), antibody 1.37 ng/ml.
In the case of 对照 (antibody), the OD值 (450nm, 参考630nm) was determined as 0.208 OD.
Same read-out and setting: as for B1, the figure is 0.295 OD.
Molecule B2 registered an OD值 (450nm, 参考630nm) of 1.27 OD.
Same read-out and setting: as for B3, the figure is 0.445 OD; as for B4, 1.26 OD; as for B5, 0.643 OD.
Same read-out and setting: with B6 the figure was 0.316 OD.

For a further assay the target is unchanged. The experiment in a line: indirect ELISA on coated antigen (2 ug/ml), antibody 4.12 ng/ml.
The molecule 对照 (antibody) registered an OD值 (450nm, 参考630nm) of 0.499 OD.
Molecule B1 gave an OD值 (450nm, 参考630nm) of 0.815 OD.
B2 yielded an OD值 (450nm, 参考630nm) of 1.64 OD.
On the same count and under the same terms, with B3 the figure was 0.85 OD; with B4, 1.92 OD; with B5, 1.51 OD.
The same measure, in the same setting: with B6 the figure was 0.837 OD.

The next assay shares this target. The experiment in a line: indirect ELISA on coated antigen (2 ug/ml), antibody 12.35 ng/ml.
Turning to 对照 (antibody), the OD值 (450nm, 参考630nm) came to 1.21 OD.
In the case of B1, the OD值 (450nm, 参考630nm) stood at 1.89 OD.
The same measure, in the same setting: as for B2, the figure is 1.93 OD; as for B3, 1.92 OD.
Same read-out and setting: with B4 the figure was 1.96 OD.
On the same count and under the same terms, as for B5, the figure is 1.91 OD.
B6 registered an OD值 (450nm, 参考630nm) of 2.02 OD.

The next assay shares this target. The experiment in a line: indirect ELISA on coated antigen (2 ug/ml), antibody 0 ng/ml (blank well).
In turn, 对照 (antibody) showed an OD值 (450nm, 参考630nm) of 0.015 OD.
B1 had an OD值 (450nm, 参考630nm) of 0.038 OD.
The same measure, in the same setting: with B2 the figure was 0.034 OD.
The same measure, in the same setting: with B3 the figure was 0.063 OD; with B4, 0.042 OD.
Still for that read-out and setting: with B5 the figure was 0.032 OD; with B6, 0.038 OD.
